Residue numbers refer to the chain shown, from its start.
B1: YMB2 IgG (antibody, V domains shown)
VH: EVQLQQSGAELVKPGASVKLSCTASGFNIKDTYMHWVKQRPEQGLEWIGRIDPENGNTKYDPKFQGKATITADTSSNTAYLQLSSLTSEDTAVYYCARFLITTGYFDYWGQGTTLTVSS
VL: DIVLTQSHKFMSTSVGDRVSITCKASQDVGTAVAWYQQKPGQSPKLLIYWASTRHTGVPDRFTGSGSGTDFTLTISNVQSEDLADYFCQQYSSYPLTFGAGTKLEIKR
B2: YMF10 IgG (antibody, V domains shown)
VH: EVQLQQSGAELVRSGASVKLSCTASGFNIKDYYMHWVKQRPEQGLEWIGWIDPENGDTEYAPKFQGKATMSADTSSNTAYLQLSSLTSEDTAVYYCNAGTPFEGLRRADYWGQGTTLTVSS
VL: B1 VL with L4M, I106L, K107N
B3: YMD1 IgG (antibody, V domains shown)
VH: B2 VH with Q5V, Q6E, S71T, R107K
VL: B1 VL with L4M, F10L, K45R, S76T, L96Y, A100G

What follows are binders tested against PA-63 (Bacillus anthracis, UniProt P13423 197-764).
Chain of PA-63 (P13423 197-764 limits assumed): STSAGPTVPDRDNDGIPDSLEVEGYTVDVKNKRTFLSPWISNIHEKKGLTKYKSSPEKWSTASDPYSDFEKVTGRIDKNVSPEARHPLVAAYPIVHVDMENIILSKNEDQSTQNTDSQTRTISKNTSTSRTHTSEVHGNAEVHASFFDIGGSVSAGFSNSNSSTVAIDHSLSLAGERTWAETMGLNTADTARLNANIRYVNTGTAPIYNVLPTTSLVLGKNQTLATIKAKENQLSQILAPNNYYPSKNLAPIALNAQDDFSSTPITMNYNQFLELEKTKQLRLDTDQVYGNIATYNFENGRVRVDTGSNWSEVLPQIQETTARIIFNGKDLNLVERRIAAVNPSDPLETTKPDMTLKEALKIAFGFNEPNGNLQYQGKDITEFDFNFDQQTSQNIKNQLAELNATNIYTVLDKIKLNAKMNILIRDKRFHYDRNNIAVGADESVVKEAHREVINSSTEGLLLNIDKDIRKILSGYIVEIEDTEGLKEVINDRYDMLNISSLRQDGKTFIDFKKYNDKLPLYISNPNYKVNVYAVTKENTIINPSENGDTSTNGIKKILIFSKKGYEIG

Binder | Kd [nM] | koff [s⁻¹] | kon [M⁻¹ s⁻¹]
B1 | 437 | 0.014 | 32000
B2 | 31 | 0.015 | 490000
B3 | 55 | 0.019 | 350000
